# Substitutions are numbered along the chain they refer to. Primed or numbered codes have the meaning given here. The star is where a group is joined. Biotin = O=C1N[C@H]2[C@H](CS[C@H]2CCCCC(=O)*)N1; PEG4′ = not defined here
# T1: B7-H3 expressed on the surface of cells (MCF7 cells; B7-H3-expressing cancer cells) (Homo sapiens (Human), UniProt Q5ZPR3 29-534)
# T1 construct: Endogenous B7-H3 on MCF7 cells (DELFIA) and on an unnamed cancer cell line (flow cytometry); also called CD276
# T1 sequence: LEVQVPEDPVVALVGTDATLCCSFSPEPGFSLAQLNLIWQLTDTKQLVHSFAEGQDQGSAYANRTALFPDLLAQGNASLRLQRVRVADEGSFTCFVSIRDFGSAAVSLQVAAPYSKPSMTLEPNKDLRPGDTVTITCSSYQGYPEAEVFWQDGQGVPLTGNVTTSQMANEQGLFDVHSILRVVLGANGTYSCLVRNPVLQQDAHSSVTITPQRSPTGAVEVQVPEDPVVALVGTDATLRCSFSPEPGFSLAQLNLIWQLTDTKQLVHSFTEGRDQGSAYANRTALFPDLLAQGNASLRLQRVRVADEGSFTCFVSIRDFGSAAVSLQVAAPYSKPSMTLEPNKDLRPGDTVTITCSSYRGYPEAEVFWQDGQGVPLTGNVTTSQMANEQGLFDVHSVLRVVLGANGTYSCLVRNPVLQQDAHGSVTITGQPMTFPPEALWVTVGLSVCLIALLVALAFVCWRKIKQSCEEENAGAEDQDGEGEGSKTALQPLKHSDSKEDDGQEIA
# T2: His-tagged B7-H3 protein (ThermoFisher, catalog #B7-H3_NP_001019907) (Homo sapiens (Human), UniProt Q5ZPR3 29-466)
# T2 construct: Bought protein immobilised for SPR; also called ligand; target protein; not shown: His tag
# T2 sequence: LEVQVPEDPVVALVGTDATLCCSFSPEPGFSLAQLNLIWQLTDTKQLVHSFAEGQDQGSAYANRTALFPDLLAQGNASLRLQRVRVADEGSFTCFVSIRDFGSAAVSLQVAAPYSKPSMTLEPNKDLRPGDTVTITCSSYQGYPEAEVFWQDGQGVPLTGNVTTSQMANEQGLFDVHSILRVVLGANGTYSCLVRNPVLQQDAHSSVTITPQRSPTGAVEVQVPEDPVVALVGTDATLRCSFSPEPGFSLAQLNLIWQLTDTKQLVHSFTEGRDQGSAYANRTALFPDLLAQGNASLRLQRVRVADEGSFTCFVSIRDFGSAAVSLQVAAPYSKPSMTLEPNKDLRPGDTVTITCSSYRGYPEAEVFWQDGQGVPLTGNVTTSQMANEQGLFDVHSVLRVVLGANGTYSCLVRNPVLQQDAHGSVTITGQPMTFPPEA
# B1: Compound C234 (designed binder)
# chain: CAXEKIAALSEIIWLPCLTYAQIXAFIAALNDDPCQSSEILSEAKELCS
# modifications: (Kme3) trimethyllysine at 3; (Kme2) dimethyllysine at 24; N-terminal Biotin-PEG4; C-terminal NH2; two disulfide bridges among Cys1, Cys17, Cys35, Cys48
# notes: also called C298
# B2: Compound C306 (designed binder)
# chain: B1 chain with A28X, K45X
# modifications: (Kme3) at 3; (Kme) at 24, 28 and 45; N-terminal Biotin-PEG4; C-terminal NH2; two disulfide bridges among Cys1, Cys17, Cys35, Cys48
# B3: Compound C304 (designed binder)
# chain: B1 chain with K45X
# modifications: (Kme3) at 3; (Kme) at 24 and 45; N-terminal Biotin-PEG4; C-terminal NH2; two disulfide bridges among Cys1, Cys17, Cys35, Cys48
# B4: Compound C318 (designed binder)
# chain: B1 chain with A29X, D32X, K45X
# modifications: (Kme3) at 3; (Kme2) at 24; (Kme) at 29 and 45; (Cit) citrulline at 32; N-terminal Biotin-PEG4; C-terminal NH2; two disulfide bridges among Cys1, Cys17, Cys35, Cys48
# B5: Compound C608 (designed binder)
# chain: B1 chain with E11X, Q36N, K45X
# modifications: (Kme3) at 3; (E(CO-)) at 11 and (K(NH-)) at 45 joined by a lactam bridge; (Kme) at 24; N-terminal Biotin-PEG4; C-terminal NH2; two disulfide bridges
# notes: Three constraints (two disulfide bridges, one lactam bridge)
# B6: Compound C300 (designed binder)
# chain: B1 chain with X3R, S38A
# modifications: (Kme2) at 24; N-terminal Biotin-PEG4; C-terminal NH2; two disulfide bridges among Cys1, Cys17, Cys35, Cys48
# B7: Compound C308 (designed binder)
# chain: B1 chain with A29X, D32X, K45X
# modifications: (Kme3) at 3; (Kme) at 24, 29, 32 and 45; N-terminal Biotin-PEG4; C-terminal NH2; two disulfide bridges among Cys1, Cys17, Cys35, Cys48
# B8: Compound C302 (designed binder)
# chain: B1 chain with X3R, S38A, E39N, K45X
# modifications: (Kme) monomethyllysine at 24 and 45; N-terminal Biotin-PEG4; C-terminal NH2; two disulfide bridges among Cys1, Cys17, Cys35, Cys48
# B9: Compound C310 (designed binder)
# chain: B1 chain with T19N, K45X
# modifications: (Kme3) at 3; (Kme) at 24 and 45; N-terminal Biotin-PEG4; C-terminal NH2; two disulfide bridges among Cys1, Cys17, Cys35, Cys48
# B10: Compound C312 (designed binder)
# chain: B1 chain with Q36N, K45X
# modifications: (Kme3) at 3; (Kme) at 24 and 45; N-terminal Biotin-PEG4; C-terminal NH2; two disulfide bridges among Cys1, Cys17, Cys35, Cys48
# B11: Compound C316 (designed binder)
# chain: B1 chain with A29R, S38A, K45X
# modifications: (Rme) methylated arginine at 3; (Kme) at 24 and 45; N-terminal Biotin-PEG4; C-terminal NH2; two disulfide bridges among Cys1, Cys17, Cys35, Cys48
# B12: Compound C275 (designed binder)
# chain: B1 chain with X3R
# modifications: (Kme2) at 24; N-terminal Biotin-PEG4; C-terminal NH2; two disulfide bridges
# B13: Compound C245 (designed binder)
# chain: CAKEKIAALSEIIWLPCLTYAQIXAFIAALNDDPCQSSELLSEAKELNDSQCP
# modifications: (homo-leucine) at 24; N-terminal Biotin-PEG4; C-terminal NH2; disulfide bridges between cysteine pairs (Cys1-Cys35 and Cys17-Cys52 named for SEQ ID NO: 213)
# B14: Compound C253 (designed binder)
# chain: B13 chain
# modifications: (Kme2) at 24; N-terminal Biotin-PEG4; C-terminal NH2; disulfide bridges between cysteine pairs
# B15: Compound C255 (designed binder)
# chain: B13 chain
# modifications: (Kme3) at 24; N-terminal Biotin-PEG4; C-terminal NH2; disulfide bridges between cysteine pairs
# B16: Compound C290 (designed binder)
# chain: {Biotin-PEG4′}-CAREKIAALSEIIWLPCLTYAQIQAFIAALNDDPCQSSEILSEAKELCS-NH2
# modifications: disulfide (positions not given here)
# B17: Compound C291 (designed binder)
# chain: {Biotin-PEG4′}-CAREKIAALSEIIWLPCLTYAQIVAFIAALNDDPCQSSEILSEAKELCS-NH2
# modifications: disulfide (positions not given here)
# B18: Compound C284 (designed binder)
# chain: {Biotin-PEG4′}-CAREKIAALSEIIWLPCLTYAQIKAFIAALNDDPCQSSEILSEAKELCS-NH2
# modifications: disulfide (positions not given here)
# B19: Compound C286 (designed binder)
# chain: {Biotin-PEG4′}-CAREKIAALSEIIWLPCLTYAQILAFIAALNDDPCQSSEILSEAKELCS-NH2
# modifications: disulfide (positions not given here)
# Biological target: T1, B7-H3 expressed on the surface of cells …
# Test: DELFIA competition assay on live MCF7 cells expressing B7-H3; the unlabeled competing ligand is varied against a fixed concentration of the europium-chelate miniprotein tracer
# Method: (§1) Equilibrium binding affinity (KD) was determined using SPR (as in Example 2) or a live cell binding assay (DELFIA) on MCF7 cells that express B7-H3. Binding inhibition constant (Kᵢ) of miniprotein ligands was also determined using MCF7 cells expressing a B7-H3. Cells were dispensed into a 384-well plate and incubated at 37° C. in 5% CO₂ overnight.
# (§2) The plate was incubated for 1.5 h at room temperature to reach equilibrium. Cells were then washed to remove unbound ligand and treated according to manufacturer instructions for a DELFIA® (dissociation-enhanced lanthanide fluorescent immunoassay, Revvity Health Sciences). In brief, 2 M HCl was added to each well and incubated for 2 h at 37° C. Following this step, 2 M NaOH and fluorescent inducer solution were added to each well and incubated for 30 minutes at room temperature. Plates were read on an Envision plate reader and a curve-fitting model was applied to estimate KD and Kᵢ values.
row,Binder,IC50 (read off the curve)
1,B1,~3 nM

# Biological target: T1, B7-H3 expressed on the surface of cells …
# Test: DELFIA competition on live MCF7 cells expressing B7-H3; fixed tracer: europium-chelate miniprotein
# Method: as §1, §2
row,Binder,Ki
1,B1,1.72 nM
2,B2,1.24 nM
3,B3,2.24 nM
4,B4,1.24 nM
5,B5,3.58 nM
6,B6,1.91 nM
7,B7,0.872 nM
8,B8,1.34 nM
9,B9,0.886 nM
10,B10,1.01 nM
11,B11,0.873 nM

# Biological target: T1, B7-H3 expressed on the surface of cells …
# Test: DELFIA on-cell competition assay on MCF7 cells (FIG. 15); single experiment of FIG. 15
# Method: as §1, §2
row,Binder,Ki
1,B1,~1.36 nM

# Biological target: T1, B7-H3 expressed on the surface of cells …
# Test: DELFIA competition on cells expressing B7-H3 (as in Example 14); competitor: europium-chelate miniprotein tracer
row,Binder,Ki
1,B12,1.42 nM
2,B13,2.8 nM
3,B14,5.36 nM
4,B15,8.75 nM
5,B16,13.8 nM
6,B17,7.7 nM
7,B18,2.02 nM
8,B19,23.9 nM

# Biological target: T2, His-tagged B7-H3 protein (ThermoFisher, …)
# Test: SPR (as in Example 2)
# Method: Surface plasmon resonance (SPR) analyses were performed using Biacore T200 (GE Healthcare). His-tagged B7-H3 protein (ThermoFisher, catalog #B7-H3_NP_001019907), (“ligand”) was immobilized to a Series S NTA chip (Cytiva #28994951). Running buffer was 0.05% Surfactant P20 in HEPES buffered saline (HBS-P), pH 7.4 (Cytiva). Immobilization was performed at 25° C. […] Pulsatile injections were made to target a specific immobilization level. […] Increase in signal (RU) is proportional to an increase in binding events between the analyte and ligand surface. Then injection was then stopped, and dissociation was measured. The resulting sensorgram is reference surface and blank injection subtracted prior to curve fitting. […] KD was calculated using a 1:1 binding model at 25° C.
# as §1
row,Binder,Kd
1,B1,1.36 nM
2,B2,0.761 nM
3,B3,1.43 nM
4,B4,1.24 nM
5,B6,0.506 nM
6,B7,0.482 nM
7,B8,0.558 nM
8,B9,0.782 nM
9,B10,0.485 nM
10,B11,0.621 nM

# Reference: patent US20260048158A1 (AKTIS ONCOLOGY, published 2026)
